Results: patent US20040166183A1, “Methods and means for preventing or treating inflammation or pruritis” (priority 1998, published 2004)

T1: bovine pancreatic trypsin (Bos taurus, UniProt P00760)
T1 construct: purchased Serva; host or cells: bovine pancreas
T1 sequence (P00760 24-246): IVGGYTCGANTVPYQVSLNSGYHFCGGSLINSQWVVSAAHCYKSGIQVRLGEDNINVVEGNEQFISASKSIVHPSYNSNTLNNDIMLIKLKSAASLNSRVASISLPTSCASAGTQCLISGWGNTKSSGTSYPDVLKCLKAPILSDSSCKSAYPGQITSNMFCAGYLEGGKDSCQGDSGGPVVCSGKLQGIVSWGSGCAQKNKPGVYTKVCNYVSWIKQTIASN

T2: lesional elastase activity in psoriasis, contact dermatitis and atopic dermatitis (Homo sapiens, UniProt P08246)
T2 sequence (P08246 30-267): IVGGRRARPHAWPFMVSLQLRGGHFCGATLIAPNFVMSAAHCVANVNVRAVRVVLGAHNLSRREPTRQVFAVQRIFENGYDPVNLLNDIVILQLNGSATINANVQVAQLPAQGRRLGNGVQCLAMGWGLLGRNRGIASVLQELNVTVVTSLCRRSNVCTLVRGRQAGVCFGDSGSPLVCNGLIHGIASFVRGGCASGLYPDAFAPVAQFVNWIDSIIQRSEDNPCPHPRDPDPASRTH

T3: papaine (Carica papaya, UniProt P00784)
T3 construct: purchased Sigma
T3 sequence (P00784 134-345): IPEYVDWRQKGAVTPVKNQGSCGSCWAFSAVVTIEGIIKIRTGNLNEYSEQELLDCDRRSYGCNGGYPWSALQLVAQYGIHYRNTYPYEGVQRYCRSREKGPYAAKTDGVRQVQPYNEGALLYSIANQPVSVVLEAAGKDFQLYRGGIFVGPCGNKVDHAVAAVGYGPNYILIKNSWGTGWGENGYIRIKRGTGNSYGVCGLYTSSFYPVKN

B1: ovomucoid: protease inhibitor, 1% (w/v) in 0.1 M phosphate buffer pH 7.6 (protein, UniProt P01005 25-210, looked up)
Ovomucoid: AEVDCSRFPNATDKEGKDVLVCNKDLRPICGTDGVTYTNDCLLCAYSIEFGTNISKEHDGECKETVPMNCSSYANTTSEDGKVMVLCNRAFNPVCGTDGVTYDNECLLCAHKVEQGASVDKRHDGGCRKELAAVSVDCSEYPKPDCTAEDRPLCGSDNKTYGNKCNFCNAVVESNGTLTLSHFGKC
B2: STI: Trypsin inhibitor II-from Soybean (T-9003; Sigma) (protein, UniProt P01070 25-205, looked up)
Trypsin inhibitor A: DFVLDNEGNPLENGGTYYILSDITAFGGIRAAPTGNERCPLTVVQSRNELDKGIGTIISSPYRIRFIAEGHPLSLKFDSFAVIMLCVGIPTEWSVVEDLPEGPAVKIGENKDAMDGWFRLERVSDDEFNNYKLVFCPQQAEDDKCGDIGISIDHDDGTRRLVVSKNKPLVVQFQKLDKESL
B3: STI-A: STI-type I-S Sigma T 9003 (protein, UniProt P01070 25-205, looked up)
Trypsin inhibitor A: B2 Trypsin inhibitor A

How the values were obtained:
[1] = system: therapy-resistant atopic dermatitis; conditions: small study; cited from earlier work
[2] = system: peri-stomal and peri-anal irritation caused by feces; conditions: applied topically; cited from earlier work
[3] = system: proteolytic activity in feces of CD patients; test: Inhibition of proteolytic activity in feces of CD patients (azocasein); type: biochemical, human; conditions: n = 4, inhibitor added to feces 1:2000 diluted, 20 h incubated with substrate
Description: Fecal samples from twenty-seven patients with Crohn's disease (CD) were studied. Twelve patients, aged 27-58 years, had undergone intestinal surgery 3-12 years previously; locations of the resections were terminal ileum, ileum and caecum, and colon. A second group of patients was not operated; the principal sites of inflammation were ileum, ileum and colon, and colon. The diagnosis CD was established with the usual clinical, radiological and histopathological critria. All patients were outpatients.
(§1) Feces was frozen and stored at −20° C. within 3 h of passage. […] Samples of 1 g were transferred to 24 vol of 0.1 M phosphate buffer pH 7.6 and homogenized (‘Stomacher’, Lab blender 400). Coarse particles were removed from the homogenates by gauze filtration (Utermohlen, refolded to 2 layers); these samples are further referred to as ‘fecal homogenates’.
Proteolytic activity was determined in the fecal homogenates in appropriate dilutions (up to 250-fold) in 0.1 M phosphate buffer (pH 7.6). Penicilline (0.1% w/v) was added to prevent bacterial growth. In the more recent inhibition tests no penicillin was used. […] The absorption of the samples was measured at 450 nm and compared with standard curves obtained from solutions of azocasein. Proteolytic activity was expressed as milligrams azocasein hydrolysed during 1 h per gram dry or wet weight of sample. […]

[4] = biological target: T1, bovine pancreatic trypsin; test: Effect of protease inhibitors on purified enzymes: trypsin (azocasein); type: biochemical; conditions: for inhibition of trypsin activity: preliminary experiments; for % Inhibition of the proteolytic activity, trypsin: STI, STI-A, -B, -C 0.125% end concentration, enzyme 0.02%, Trasylol undil., PJ: 1 g PJ powder mixed with 2 ml and with 4 ml buffer
Protocol: (§2) Proteolytic activity was determined in the fecal homogenates in appropriate dilutions (up to 250-fold) in 0.1 M phosphate buffer (pH 7.6). Penicilline (0.1% w/v) was added to prevent bacterial growth. In the more recent inhibition tests no penicillin was used. Samples of 0.1 ml were incubated with 0.1 ml 1% (w/v) azocasein (Sigma) in phosphate buffer at 37° C. during 1 h. The reaction was stopped by addition of 0.2 ml 10% (w/v) trichloroacetic acid (TCA); after 10 min at room temperature unhydrolysed azocasein, bacteria and other particles were removed by centrifugation at 10,000 rpm during 10 min. Then 0.1 ml of the clear supernatant was transferred to 0.1 ml of 1 N NaOH in flatbottom 24 wells microplates. To the blank assays azocasein was added after incubation an addition of TCA. The absorption of the samples was measured at 450 nm and compared with standard curves obtained from solutions of azocasein. Proteolytic activity was expressed as milligrams azocasein hydrolysed during 1 h per gram dry or wet weight of sample. Each diluted sample was tested for other than enzymatic substrate hydrolysis after heating at 80° C. for 10 min. Spontaneous substrate hydrolysis was tested by incubation of the substrate with buffer.
(§3) In most of the experiments the inhibitor was added to feces (diluted 1:25 in buffer), mixed for 5-15 min and added to the substrate; PJ-powder was added to undiluted feces (1:1) and after mixing, diluted (1:25) with buffer. In each experiment controls were assayed (sterilized feces, sterilized inhibitors, buffer solutions).
bovine pancreatic trypsin (Serva)
(§4) All enzymes were used in a concentration of 0.2% (w/v) in buffer.
(§5) enzyme concentration was 0.02%, inhibitor concentration (end concentration) was 0.125%.

[5] = biological target: T4, bovine pancreatic α-chymotrypsin (Bos taurus, UniProt P00766); test: Effect of protease inhibitors on purified enzymes: chymotrypsin (azocasein); type: biochemical; conditions: for inhibition of α-chymotrypsin activity: preliminary experiments; for % Inhibition of the proteolytic activity, chymotrypsin: STI, STI-A, -B, -C 0.125% end concentration, enzyme 0.02%, Trasylol undil., PJ: 1 g PJ powder mixed with 2 ml and with 4 ml buffer
T4 construct: purchased Merck, Sigma; host or cells: bovine pancreas
Protocol: as §2, §3
bovine pancreatic α-chymotrypsin (Merck, Sigma)
as §4, §5

[6] = system: proteolytic activity in feces of ileostomy dog / pouch dog; test: Inhibition of proteolytic activity in feces of ileostomy and pouch dogs (azocasein); type: biochemical
Protocol: Fecal samples from 20 colectomized dogs, purebred Beagles (Harlan) were collected. Three ileostomy groups were studied. In ten dogs a standard Brooke ileostomy was constructed by subtotal colectomy. In five dogs a valveless ileal reservoir (pouch) was fashioned by a side-to-side iso-antiperistaltic anastomosis. After a recovery period of 2 weeks a schedule of increasing periods of occlusion was started, except for 5 dogs. The maximum tolerable occlusion time was 2.5-3 h for the ileostomy group and 4-7 h for the reservoir group. In five dogs a continent ileostomy (Kock's pouch) was constructed, which was emptied 2-5 times per 24 hours by catheterization.
as §1
as §2, with “Samples of 0.1 ml were incubated with 0.1 ml 1% (w/v) azocasein (Sigma) in phosphate buffer at 37° C. during 1 h.” left out
as §3

[7] = system: supernatant from feces of a patient with an ileum reservoir with a high proteolytic activity, on skin; test: Skin test on the fore-arm with fecal supernatant and STI; type: in vivo, human; conditions: 7 h incubation on fore-arm
Protocol: Skin tests were performed on the ventral part of the fore-arm. The following solutions were tested: 1. supernatant from feces of a patient with an ileum reservoir with a high proteolytic activity; 2. the same supernatant, but sterilised; 3. supernatant with 0.25% STI (w/v) and 4. 0.25% STI in buffer. Two hundred μl of each solution were placed on folded cambric on the skin and covered with plastic and adhesion wound pad. Total incubation time was 7 h, but after 3 and 5 h 100 μl buffer was added to each of the test patches to prevent dehydration.
After removing the pads and the cambric the skin was carefully cleaned with tap water and judged immediately and after 1-18 h.

[8] = system: bovine pancreatic elastase; test: Effect of protease inhibitors on purified enzymes: elastase (azocasein); type: biochemical; conditions: STI, STI-A, -B, -C 0.125% end concentration, enzyme 0.02%; Trasylol undil.; PJ: 1 g PJ powder mixed with 2 ml and with 4 ml buffer
Protocol: as §2, with “buffer. […]” for “buffer.”

[9] = biological target: T2, lesional elastase activity in psoriasis, contact dermatitis and atopic dermatitis; conditions: in vitro; Wiedow et al, Dermatol 1992; cited from earlier work
[10] = biological target: T3, papaine; test: Effect of protease inhibitors on purified enzymes: papain (azocasein); type: biochemical; conditions: STI-A, -B, -C 0.125% end concentration, enzyme 0.02%; PJ: 1 g PJ powder mixed with 2 ml and with 4 ml buffer
Protocol: as §2, with “buffer. […]” for “buffer.”

[11] = system: pronase; test: Effect of protease inhibitors on purified enzymes: pronase (azocasein); type: biochemical; conditions: STI-A, -B, -C 0.125% end concentration, enzyme 0.02%; PJ: 1 g PJ powder mixed with 2 ml and with 4 ml buffer
Protocol: as §2, with “buffer. […]” for “buffer.”

[12] = Ileostomy dog, n = 1*, inhibitor added to feces 1:2000 diluted, 20 h incubated with substrate, STI 1%
[13] = dog, n = 3°, inhibitor added to feces diluted 1:100, 2 h incubated, STI 1%

| Molecule | inhibition of trypsin activity [4] | inhibition of α-chymotrypsin activity [5] | % inhibition of the proteolytic activity [6, 12] [%] | % inhibition of the proteolytic activity [6, 13] [%] | % Inhibition of the proteolytic activity, elastase [8] [%] | % Inhibition of the proteolytic activity, trypsin [4] [%] | % Inhibition of the proteolytic activity, chymotrypsin [5] [%] | other results |
| --- | --- | --- | --- | --- | --- | --- | --- | --- |
| alpha1-proteinase inhibitor: protease inhibitor cited from the literature |  |  |  |  |  |  |  | effect on therapy-resistant atopic dermatitis [1]: wound healing effect |
| sucralfate |  |  |  |  |  |  |  | peri-stomal and peri-anal irritation caused by feces [2]: reduce |
| B1 | larger part | larger part | 93 | 84 |  |  |  | % inhibition of the proteolytic activity [3]: 68%; % inhibition of the proteolytic activity ([6]; dog, n = 1†, undiluted feces + inhibitor (3 + 1), mixing for 2 h, then diluted 1:100): 52% |
| B2 |  |  | 93 | 84 | 15 | 99 | 99 | skin reaction ([7]; location 3: fecal supernatant with 0.25% STI (w/v), supernatant alone: moderate redness, papulas, some vesiculas): slight redness that disappeared within 60 min; skin reaction ([7]; location 4: 0.25% STI in buffer): No reaction; effect on lesional elastase activity [9]: inhibitotory effect; % inhibition of the proteolytic activity ([6]; STI 0.25%, dog, n = 3°, feces diluted 1:100, 2 h incubated): 63%; % inhibition of the proteolytic activity ([6]; STI 0.5%, dog, n = 3°, feces diluted 1:100, 2 h incubated): 61%; % inhibition of the proteolytic activity ([6]; STI 0.75%, dog, n = 3°, feces diluted 1:100, 2 h incubated): 45%; inhibition of the proteolytic activity ([6]; STI in a concentration of 1% (w/v)): > 80% |
| B3 | larger part | larger part |  |  | 50 | 100 | 80 | % Inhibition of the proteolytic activity, papain [10]: 0%; % Inhibition of the proteolytic activity, pronase [11]: 0% |
